Measured values reported in patent publication US11766432B2, “Cleavable conjugates of catechol compounds and water-soluble polymers and methods of treatment using the same” (SERINA THERAPEUTICS, INC., priority 2018, dated 2023).
Several values for one entry are separate records, joined by “and”; a condition that tells them apart may be missing. Equal entries are not always repeated. Structures can show the parent of a compound that is named as a salt. Where two headings read alike, the source gives them in different places.

How the values were obtained:
[1] = tested on: skin at injection site; conditions: for tolerability after SC injection: primates, single SC injection 1.5 mg/kg
[2] = female, cynomolgus monkey, in vivo, sc, 1.5 mg/kg
[3] = in vivo; conditions: female, cynomolgus monkey, sc, 1.5 mg/kg
[4] = single SC injection 1.5 mg/kg; for PR (percent of released apomorphine): AUC0-last(free) relative to AUC0-last(total); for PR (percent of released apomorphine) / AUC0-168 / AUC0-inf / AUC0-last / CL/F obs / Cmax / Tmax: mean; for time by which drug is cleared and BLQ / AUC0-168 / AUC0-inf / AUC0-last / CL/F obs / Cmax / Tmax: total apomorphine, plasma
[5] = tested on: skin at injection site; conditions: for tolerability after SC injection: primates, SC injection 3.0 mg/kg (apomorphine equivalents), multiple doses; for skin at the site of injection 12 hours after the third dose (day 14): weekly SC injection 3.0 mg/kg (apomorphine equivalents)
Procedure: Non-naïve female cynomolgus monkeys were used in the study. […] They were assigned to three groups with 3 animals per group.
The test articles were dosed subcutaneously (as described in Table 6) in the right shoulder on days 0 and 14 and in the left shoulder on days 7 and 21, of each monkey. […] Photographs were taken to study the severity of the reactions and observations that were recorded.
To determine if the Apo-A, Apo-B, and Apo-G conjugates induced skin reactions at a concentration of 3.0 mg/kg (as compared to the 1.5 mg/kg dose described in Examples 18 and 20), all animals were/will be monitored daily for these skin reactions. Photographs were/will be taken to study the skin reactions and observations were/will be recorded. Bases on the presence of erythema and swelling, the skin reactions were/will be recorded as none, slight, well defined, moderate and severe.

[6] = Pharmacokinetics of free apomorphine in plasma after single SC infusion/injection; conditions: for dose dumping (burst effect): after single SC administration 1.5 mg/kg; for AUC0-168 / AUC0-inf / AUC0-last / Cmax / Tmax / time post-dose by which drug is completely cleared and below the limit of quantification (BLQ) / increase of Tmax as compared to apomorphine HCl / increase of t1/2z as compared to apomorphine HCl: free apomorphine, single SC 1.5 mg/kg; for AUC0-168 / AUC0-inf / AUC0-last / Cmax / Tmax / time post-dose by which drug is completely cleared and below the limit of quantification (BLQ): plasma; for AUC0-168 / AUC0-inf / AUC0-last / Cmax / Tmax: female monkeys, mean n=3; for period of sustained release of apomorphine: single SC injection 1.5 mg/kg, monkeys
[7] = single SC 1.5 mg/kg, per animal

CN1CCc2cccc3c2[C@H]1Cc1ccc(O)c(O)c1-3 [apomorphine HCl, Apomorphine hydrochloride]
Observations (skin reaction), Day 15 ([1]; female, cynomolgus monkey, in vivo, sc, 1.5 mg/kg, 15 day): Day 15: Skin appears normal. | time post-dose by which drug is completely cleared and below the limit of quantification (BLQ) [2]: ≤ 24 h | AUC0-inf [3]: 90.2 ng·h/mL | CL/F [3]: 289 mL/min/kg | Cmax [3]: 10.6 ng/mL | Vd/F [3]: 43.6 L/kg | AUC(0-t) ([3]; cynomolgus): 89.8 ng·h/mL | Cmax ([3]; cynomolgus): ~10.6 ng/mL | Tmax ([3]; cynomolgus): 4 h

POZ10p20k[Apo(2-methylpropanoate)(4-triazolebutanoate)]10 [POZ-Apomorphine B]
tolerability after SC injection [1]: well tolerated | Observations (skin reaction), Day 1 to Day 15 [1, 7]: Day 1 to Day 15: No erythema and swelling. | Observations (skin reaction), Day 15 [1, 7]: Day 15: Skin appears normal. | PR (percent of released apomorphine) [4]: 5.5% | time by which drug is cleared and BLQ [4]: > 240 h | AUC0-168 [4]: 8317 ng·h/mL | AUC0-inf [4]: 16456 ng·h/mL | AUC0-last [4]: 11610 ng·h/mL | CL/F obs [4]: 1.52 mL/min/kg | Cmax ([4]; 1.5 mg/kg): 72.6 ng/mL and 72.7 ng/mL | Tmax ([4]; 1.5 mg/kg): 136.0 h | tolerability after SC injection [5]: well tolerated | skin at the site of injection 12 hours after the third dose (day 14) [5]: appeared normal with no sign of erythema and swelling | dose dumping (burst effect) [6]: no evidence of dose dumping | AUC0-168 [6]: 478 ng·h/mL | AUC0-inf [6]: 968 ng·h/mL | AUC0-last [6]: 640 ng·h/mL | Cmax [6]: 3.5 ng/mL | Tmax [6]: 104 h | time post-dose by which drug is completely cleared and below the limit of quantification (BLQ) [6]: > 240 h | increase of Tmax as compared to apomorphine HCl [6]: 26 times | increase of t1/2z as compared to apomorphine HCl [6]: 84.3 times | period of sustained release of apomorphine [6]: 10 days

POZ10p20k[Apo(4-butanoate)(4-triazolebutanoate)]10 [POZ-Apomorphine A]
tolerability after SC injection [1]: well tolerated | Observations (skin reaction), Day 1 to Day 15 [1, 7]: Day 1 to Day 15: No erythema and swelling. | Observations (skin reaction), Day 15 [1, 7]: Day 15: Skin appears normal. | PR (percent of released apomorphine) [4]: 4.8% | time by which drug is cleared and BLQ [4]: ≤ 240 h | AUC0-168 [4]: 13368 ng·h/mL | AUC0-inf [4]: 138986 ng·h/mL | AUC0-last [4]: 13835 ng·h/mL | CL/F obs [4]: 1.82 mL/min/kg | Cmax [4]: 151.3 ng/mL | Tmax [4]: 88 h | tolerability after SC injection [5]: well tolerated | skin at the site of injection 12 hours after the third dose (day 14) [5]: appeared normal with no sign of erythema and swelling | dose dumping (burst effect) [6]: no evidence of dose dumping | AUC0-168 [6]: 647 ng·h/mL | AUC0-inf [6]: 666 ng·h/mL | AUC0-last [6]: 656 ng·h/mL | Cmax [6]: 6.6 ng/mL | Tmax [6]: 88 h | time post-dose by which drug is completely cleared and below the limit of quantification (BLQ) [6]: ≤ 240 h | increase of Tmax as compared to apomorphine HCl [6]: 22 times | increase of t1/2z as compared to apomorphine HCl [6]: 13.2 times | period of sustained release of apomorphine [6]: 5 days
